Experimental data reported in paper PMC6499106, “The CXCR4-LASP1-eIF4F Axis Promotes Translation of Oncogenic Proteins in Triple-Negative Breast Cancer Cells” (Frontiers in Oncology, 2019).

Target: T1, eIF4E, the cap binding subunit of eIF4F, endogenous in 231S cells (human (endogenous in 231S, MDA-MB-231), UniProt P06730 1-217)
T1 construct: source: endogenous, 231S cells, in lysate, held on m7-GTP agarose beads
Assay: pull-down; m7-GTP agarose beads with 1 mg 231S lysate in Co-IP buffer overnight at 4°C; cells stimulated with 20 nM CXCL12 over time, with or without 100 nM AMD3465; eIF4E as precipitate, LASP1 or eIF4G as co-precipitate by Western blot
Settings: partners not purified

T1 sequence (P06730 whole entry): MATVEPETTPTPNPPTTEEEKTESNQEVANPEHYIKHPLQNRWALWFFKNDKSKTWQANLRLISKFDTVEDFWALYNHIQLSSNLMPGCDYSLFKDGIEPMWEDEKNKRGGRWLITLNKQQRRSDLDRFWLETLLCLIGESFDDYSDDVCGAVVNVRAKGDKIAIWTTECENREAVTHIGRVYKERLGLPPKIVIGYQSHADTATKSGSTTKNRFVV

fold change of co-precipitate, CXCL12 for 5 min against 0 min: 2.2 fold
B1: LIM and SH3 Protein 1 (LASP1), endogenous in 231S cells (natural protein, human (endogenous in 231S, MDA-MB-231), UniProt Q14847 1-261, looked up)
chain: MNPNCARCGKIVYPTEKVNCLDKFWHKACFHCETCKMTLNMKNYKGYEKKPYCNAHYPKQSFTMVADTPENLRLKQQSELQSQVRYKEEFEKNKGKGFSVVADTPELQRIKKTQDQISNIKYHEEFEKSRMGPSGGEGMEPERRDSQDGSSYRRPLEQQQPHHIPTSAPVYQQPQQQPVAQSYGGYKEPAAPVSIQRSAPGGGGKRYRAVYDYSAADEDEVSFQDGDTIVNVQQIDDGWMYGTVERTGDTGMLPANYVEAI
notes: LIM and SH3 protein 1 (LASP1), endogenous in human 231S breast cancer cells; source: endogenous, 231S (MDA-MB-231 sorted for high CXCR4) cells, in lysate or in situ
